Assay results from article PMC5696595, “Therapeutic Application of Phage Capsule Depolymerases against K1, K5, and K30 Capsulated E. coli in Mice” (Frontiers in Microbiology, 2017).

Assays:
Assay in all cases: SEC; analytical size exclusion on Superose 6 10/300 GL, AKTA FPLC, 4°C, 25 mM sodium phosphate, 150 mM NaCl, pH 7.5, 0.4 ml/min; molecular weights estimated with high molecular weight calibration kit; 200 μg to 1 mg protein loaded
[1] = molecular target: K1F depolymerase (coliphage K1F)
[2] = molecular target: K1H depolymerase (coliphage K1H)
[3] = molecular target: K5 depolymerase (coliphage K1-5)
[4] = molecular target: the molecule itself

With K1F depolymerase (enzyme) the stoichiometry N [1] was 3.

With K1H depolymerase (enzyme) the stoichiometry N [2] was 3.

Work on K5 depolymerase (enzyme) yielded a stoichiometry N [3] of 3.

B1: K30 gp42 (natural protein)
chain: MLDKLNQPKGSTIGVLKDGRTTQEAIDELTNDVTGSITTTRYASSASQALFPKLIDKMTAYRHGVSGFQDKFRIYGYGSSVGNGATIGGNSSPNTPVAKFFEHFQRTVNKAGIYPFEYSNKSVDGSNINDFLNREWPATVATGVFPDLAVFAYGMNDFPSAQYNAGMTFGANGFKQRLRNAIQKVRDAGGDVVLLTTPHPNIEEYSWELPSSIDMVWPQFAAKPVAGDVLIPPVSQSNVSFDFMGKRITQGVRFLRGNDAMREVAVEMGCVLIDVEKYWFEAVGKYGNVLLFDRVPAMQTVHPNLLGHQQSYWRAIEEFFNNVDSSGWIAPDAKLNQTLDVGGNALNPAKMEADVDLQANGIRQRAFVRRDKSGRVMEELTQDSRVKRTSYTVSDPTVSAPGYSLTWDEWFTRTKGLFTSGETLGIPVNNRTEGRLLVTAWISGQTGWTQLEDYLVSNREGVVLVSKIGSLDNTPPAGGTGTNGQRLFTVSTSANNVVVNILSDNATVKFKLDTFGA
With B1 the “stoichiometry N” value [4] was 3.

B2: K30 gp41 (enzyme)
chain: MDQDIKTVIQYPVGATEFDIPFDYLSRKFVRVSLVTGDNRRLLSNITEYRYVSKTRVKLLVETAGFDRVEIRRFTSASERIVDFSDGSVLRAADLNVSQIQSAHIAEEARDAALMAMPQDDVGNLDARNRRIVRLAPGIDSTDAINKNQLDTTLGEAGGILSQVKDTQKDIQNYIQKFGDDTAMVRGVNWVYNGGSAIGGETSFIIDKSAPVFAVPYIEVNGSRQFRDWQYEYDPATKRVTLVKPLEAGDFVVCLTTENKLPLEDLLASTGGADSIGKAGGGTVQDGLDATIHGTDVHRDTVTPGKLDTLLVYNGTNAGRDLRGHEFVMPHGTFSATRILRTRGISAAESKYTGFTWRGQGSSFTKLVHPATGGQGDIAFMDYLKDVTMSGFMMDNTALGQGTSNQDTRNGQFWIRHSVDSYFDDLRFAGADALTFCLDHCKNIYSTNLKVDYQLRYPTGTGKSPLIVGDYSEQCMFIGGYVKTVSPDGTIKYAGDLADNDQADDTKWAFINLYGLTFEQKPNSNACMWQEGEGAPSNAHFIGMNYINNGVGHGVSEKAVGTDIGSTFRQAQVRAVWNRAEYISIGSHFINNDAKYPAGTGGAGTAAAGGVHNDNAKFTSLVGDYFRGNFADYTDYTGASGVNPENSTHITNAKLTSIIRTSSSSTSQHLAIVNCQLTSAGRISGGGNGRLHVSVVASHCVGPLGQFGHGQSETYLDVINSTFTAAGSTEAMITQSGVGNISFANSTFRDYIRVVDGSHTRVTFRNCTFYTCTFTEDDRKARYVNCRFISCTDAPDSFGLNFAADSLDRPSSLRVNVTLTAGGSYTFPAWVLQGRGAYFINVGGNGANLPACAGIIGKSSATGSGVWTPQWESTPSSIVVSWPSNGYITVTATTAGNYTIGVH
B2 was tested, and the “stoichiometry N” value [4] was 3.
